Biological target: the molecule itself
Assay: dual-color colocalization single molecule localization microscopy (DCC-SMLM); HEK293T cells transiently transfected, fixed with cold methanol; each subunit C-terminally tagged with mVenus and PAmCherry; colocalization ratio compared with the calibrated DCC model (coefficient of mismatch M^2) and with reference proteins (two-sample K.-S. test)

B1: prestin (Slc26a5) tagged with mVenus and PAmCherry (natural protein, rat, UniProt Q9EPH0 1-744, looked up)
chain: MDHAEENEIPAETQKYLVERPIFSHPVLQERLHVKDKVTDSIGDKLKQAFTCTPKKVRNIIYMFLPITKWLPAYKFKEYVLGDLVSGISTGVLQLPQGLAFAMLAAVPPVFGLYSSFYPVIMYCFFGTSRHISIGPFAVISLMIGGVAVRLVPDDIVIPGGVNATNGTEARDALRVKVAMSVTLLSGIIQFCLGVCRFGFVAIYLTEPLVRGFTTAAAVHVFTSMLKYLFGVKTKRYSGIFSVVYSTVAVLQNVKNLNVCSLGVGLMVFGLLLGGKEFNERFKEKLPAPIPLEFFAVVMGTGISAGFNLHESYSVDVVGTLPLGLLPPANPDTSLFHLVYVDAIAIAIVGFSVTISMAKTLANKHGYQVDGNQELIALGICNSIGSLFQTFSISCSLSRSLVQEGTGGKTQLAGCLASLMILLVILATGFLFESLPQAVLSAIVIVNLKGMFMQFSDLPFFWRTSKIELTIWLTTFVSSLFLGLDYGLITAVIIALLTVIYRTQSPSYTVLGQLPDTDVYIDIDAYEEVKEIPGIKIFQINAPIYYANSDLYSSALKRKTGVNPAIIMGARRKAMRKYAKEVGNANIANATVVKVDAEVDGENATKPEEEDDEVKFPPIVIKTTFPEELQRFLPQGENIHTVILDFTQVNFMDSVGVKTLAGIVKEYGDVGIYVYLAGCSAQVVNDLTSNRFFENPALKELLFHSIHDAVLGSQVREAMAEQETTVLPPQEDMEPNATPTTPEA
notes: prestin (Slc26a5), rat motor protein of cochlear outer hair cells; The same construct was used for DCC-SMLM and hrCNE; also called SLC26A5/prestin; source: HEK293T, transfected; on fixed cells (DCC-SMLM) and in lysate (digitonin or DDM, hrCNE); not shown: mVenus, C-terminal, kept; PAmCherry, C-terminal, kept
B1 was tested, and the “stoichiometry N” value was 2.

B2: SLC26A3 tagged with mVenus and PAmCherry (natural protein, human, UniProt P40879 1-764, looked up)
chain: MIEPFGNQYIVARPVYSTNAFEENHKKTGRHHKTFLDHLKVCCSCSPQKAKRIVLSLFPIASWLPAYRLKEWLLSDIVSGISTGIVAVLQGLAFALLVDIPPVYGLYASFFPAIIYLFFGTSRHISVGPFPILSMMVGLAVSGAVSKAVPDRNATTLGLPNNSNNSSLLDDERVRVAAAASVTVLSGIIQLAFGILRIGFVVIYLSESLISGFTTAAAVHVLVSQLKFIFQLTVPSHTDPVSIFKVLYSVFSQIEKTNIADLVTALIVLLVVSIVKEINQRFKDKLPVPIPIEFIMTVIAAGVSYGCDFKNRFKVAVVGDMNPGFQPPITPDVETFQNTVGDCFGIAMVAFAVAFSVASVYSLKYDYPLDGNQELIALGLGNIVCGVFRGFAGSTALSRSAVQESTGGKTQIAGLIGAIIVLIVVLAIGFLLAPLQKSVLAALALGNLKGMLMQFAEIGRLWRKDKYDCLIWIMTFIFTIVLGLGLGLAASVAFQLLTIVFRTQFPKCSTLANIGRTNIYKNKKDYYDMYEPEGVKIFRCPSPIYFANIGFFRRKLIDAVGFSPLRILRKRNKALRKIRKLQKQGLLQVTPKGFICTVDTIKDSDEELDNNQIEVLDQPINTTDLPFHIDWNDDLPLNIEVPKISLHSLILDFSAVSFLDVSSVRGLKSILQEFIRIKVDVYIVGTDDDFIEKLNRYEFFDGEVKSSIFFLTIHDAVLHILMKKDYSTSKFNPSQEKDGKIDFTINTNGGLRNRVYEVPVETKF
notes: SLC26A3, human epithelial chloride-bicarbonate exchanger; The same construct was used for DCC-SMLM and hrCNE; also called epithelial chloride-bicarbonate exchanger SLC26A3; source: HEK293T, transfected; on fixed cells (DCC-SMLM) and in lysate (digitonin or DDM, hrCNE); not shown: mVenus, C-terminal, kept; PAmCherry, C-terminal, kept
For B2, the “stoichiometry N” value was 2.
